In PMC6873191:

Legend:
[1] = target: full-length ClpC fused to the T25 fragment of B. pertussis adenylate cyclase (UniProt P37571); assay: bacterial two-hybrid interaction assay (β-gal readout); settings: E. coli Δcya strain DHM1, Gp53 fused to T18, ClpC fused to T25, n = 3; for response: parent: est. 21000, read off a plot; for percent of parent: parent: 100
[2] = target: C-terminal FLAG-tagged ClpC (B. subtilis) (UniProt P37571)
[3] = target: full-length ClpC fused to the T25 fragment of B. pertussis adenylate cyclase (B. subtilis) (UniProt P37571); assay: two-hybrid; modified bacterial two-hybrid: MecA-T18 and ClpC-T25 in E. coli DHM1 that holds a plasmid with Gp53 under the L-arabinose-inducible araB promoter; β-gal activity with and without L-arabinose

Gp53 (WT) fused to a fragment of B. pertussis adenylate cyclase for the bacterial two-hybrid assay K101A
response [1]: 22000 Miller Units

Gp53 (WT) fused to a fragment of B. pertussis adenylate cyclase for the bacterial two-hybrid assay L95A
percent of parent [1]: 48% | response [1]: 10000 Miller Units

Gp53 (WT) fused to a fragment of B. pertussis adenylate cyclase for the bacterial two-hybrid assay R94A
response [1]: 21000 Miller Units

Gp53 (WT) fused to a fragment of B. pertussis adenylate cyclase for the bacterial two-hybrid assay L83A
response [1]: 20000 Miller Units

Gp53 (WT) fused to a fragment of B. pertussis adenylate cyclase for the bacterial two-hybrid assay R94E
percent of parent [1]: 37% | response [1]: 7700 Miller Units

Gp53 (WT) fused to a fragment of B. pertussis adenylate cyclase for the bacterial two-hybrid assay V87A
percent of parent [1]: 44% | response [1]: 9300 Miller Units

N-terminal His6-tagged Gp53 of phage SPO1 (natural protein)
β-casein (3 μM) left intact after 90 min of in vitro degradation by ClpCP with MecA, with Gp53 against without Gp53 [2]: 10 fold

Gp53 expressed from pSCBAD-Gp53 under the L-arabinose-inducible araB promoter (natural protein)
fold reduction of the β-gal activity of MecA-ClpC on induction of Gp53 [3]: 3 fold

Gp53 (WT) fused to a fragment of B. pertussis adenylate cyclase for the bacterial two-hybrid assay K101E
response [1]: 23000 Miller Units
